Consider 8 substances from patent publication US20230135471A1, “UBIQUITIN VARIANTS WITH IMPROVED AFFINITY FOR 53BP1” (Integrated DNA Technologies, Inc., priority 2021, published 2023).

The first test has as its target 53BP1 fragment (a.a. 1221-1718) fused to an adenylate cyclase fragment (two-hybrid) (UniProt Q12888). Description: cell-based or functional assay.
For the substance “i53 + T14D two-hybrid fusion (designed binder)”, the Experiment 1 Average Enrichment amounted to 2.88 log2, the Experiment 1 Rep 1 Enrichment was determined as 2.9 log2, the Experiment 1 Rep 2 Enrichment came out at 2.86 log2 and the Experiment 2 Average Enrichment was 1.53 log2. The Experiment 2 Rep 1 Enrichment is 1.65 log2 and the Experiment 2 Rep 2 Enrichment was 1.4 log2.
For the substance “i53 + T14H two-hybrid fusion (designed binder)”, the Experiment 1 Average Enrichment stood at 2.56 log2, the Experiment 1 Rep 1 Enrichment came to 2.63 log2, the Experiment 1 Rep 2 Enrichment stood at 2.5 log2 and the Experiment 2 Average Enrichment was 1.65 log2. The same substance came in with an Experiment 2 Rep 1 Enrichment of 1.47 log2 and an Experiment 2 Rep 2 Enrichment of 1.84 log2.
In turn, “i53 + T14N two-hybrid fusion (designed binder)” yielded an Experiment 1 Average Enrichment of 2.76 log2, an Experiment 1 Rep 1 Enrichment of 2.84 log2, an Experiment 1 Rep 2 Enrichment of 2.69 log2 and an Experiment 2 Average Enrichment of 1.44 log2. Besides, the Experiment 2 Rep 1 Enrichment is 1.5 log2 and the Experiment 2 Rep 2 Enrichment was determined as 1.37 log2.
In turn, “i53 + T55R two-hybrid fusion (designed binder)” returned an Experiment 1 Average Enrichment of -0.06 log2, an Experiment 1 Rep 1 Enrichment of 0.11 log2, an Experiment 1 Rep 2 Enrichment of -0.22 log2 and an Experiment 2 Average Enrichment of 0.12 log2. The same substance showed an Experiment 2 Rep 1 Enrichment of 0.19 log2 and an Experiment 2 Rep 2 Enrichment of 0.05 log2.
As to “i53 + V17C two-hybrid fusion (designed binder)”, the Experiment 1 Average Enrichment is -1.08 log2, the Experiment 1 Rep 1 Enrichment is -2.27 log2, the Experiment 1 Rep 2 Enrichment was found to be 0.12 log2 and the Experiment 2 Average Enrichment was 0.19 log2. Besides, the Experiment 2 Rep 1 Enrichment came to 0.6 log2 and the Experiment 2 Rep 2 Enrichment was -0.23 log2.
Consider “i53 + V26L two-hybrid fusion (designed binder)”, for which the Experiment 1 Average Enrichment was 0.55 log2, the Experiment 1 Rep 1 Enrichment is 0.4 log2, the Experiment 1 Rep 2 Enrichment amounted to 0.69 log2 and the Experiment 2 Average Enrichment was 0.55 log2. The Experiment 2 Rep 1 Enrichment worked out at 0.52 log2 and the Experiment 2 Rep 2 Enrichment amounted to 0.58 log2.
Turning to “i53-adenylate cyclase fragment fusion protein (two-hybrid) (designed binder)”, the GFP positive population, high selection pressure is 3%; the GFP positive population, low selection pressure came out at 17%; the Percent GFP Positive Rep 1 amounted to 9%; the Percent GFP Positive Rep 2 was found to be 7.6%. Further, the Percent GFP Positive Rep 3 was determined as 11.8%.

The target is the same in another test.
Test: not given
On to i53-DM (designed binder), for which the % GFP+ worked out at 0.1% and the percent GFP-positive E. coli cells, two-hybrid reporter, gate P5 was 0.1%.
For “i53-adenylate cyclase fragment fusion protein (two-hybrid) (designed binder)”, the percent GFP-positive E. coli cells, two-hybrid reporter, gate P5 worked out at 9%.
